Experimental data taken from patent publication US20260166140A1, “Combinations Involving Epidermal Growth Factor Receptor Tyrosine Kinase Inhibitors For the Treatment of Cancer” (AstraZeneca AB, priority 2022, published 2026).
Changes are numbered by the printed parent chain.

Columns and labels:
Cynomolgus monkey EGFR = experiment: SPR (BIAcore T200) antibody capture kinetics; type: binding; conditions: 25° C.
Protocol: (§1) Mouse anti-human IgG was immobilized on a CM4 sensor chip with a final surface density of ˜2000 resonance units (RUs). A reference flow cell surface was also prepared on this sensor chip using identical immobilization protocol. Test and control article antibodies were prepared at 5-20 nM in instrument buffer (HBS-EP buffer; 0.01M HEPES, pH 7.4, 0.15M NaCl, 3 mM EDTA, and 0.005% P-20), along with 3-fold serial dilutions of purified EGFR (0.27-200 nM human, 0.4-900 nM cyno, and 4-1000 nM murine) or cMET proteins (0.27 to 66 nM human and 0.27-22 nM cyno) in instrument buffer. A sequential approach was utilized for kinetic measurements. Antibodies were first injected over the capture surface, at a flow rate of 10 μL/minute. Once the binding of the captured antibody stabilized, a single concentration of the analyte was injected over both capture and reference surfaces, at a flow rate of 75 μL/minute. The resulting binding response curves yielded the association phase data. Following the injection of analyte, the flow was then switched back to instrument buffer for 15 minutes to permit the collection of dissociation phase data, followed by a 1-minute pulse of 10 mM glycine, pH 1.5, to regenerate the antibody-captured surface on the chip. Binding responses against test and control article antibodies were recorded from duplicate injections of each concentration of analyte. In addition, several buffer injections were interspersed throughout the injection series. Select buffer injections were used along with the reference cell responses to correct the raw data sets for injection artifacts and/or nonspecific binding interactions, commonly referred to as “double referencing”. Corrected binding data were globally fit to a 1:1 binding model (Biacore T200 Evaluation software 2.0, GE Healthcare, Pittsburgh, PA).

Cynomolgus monkey cMET = experiment: SPR (BIAcore T200) antibody capture kinetics; type: binding; conditions: 25° C.
Chain of Cynomolgus monkey cMET (as listed by the source): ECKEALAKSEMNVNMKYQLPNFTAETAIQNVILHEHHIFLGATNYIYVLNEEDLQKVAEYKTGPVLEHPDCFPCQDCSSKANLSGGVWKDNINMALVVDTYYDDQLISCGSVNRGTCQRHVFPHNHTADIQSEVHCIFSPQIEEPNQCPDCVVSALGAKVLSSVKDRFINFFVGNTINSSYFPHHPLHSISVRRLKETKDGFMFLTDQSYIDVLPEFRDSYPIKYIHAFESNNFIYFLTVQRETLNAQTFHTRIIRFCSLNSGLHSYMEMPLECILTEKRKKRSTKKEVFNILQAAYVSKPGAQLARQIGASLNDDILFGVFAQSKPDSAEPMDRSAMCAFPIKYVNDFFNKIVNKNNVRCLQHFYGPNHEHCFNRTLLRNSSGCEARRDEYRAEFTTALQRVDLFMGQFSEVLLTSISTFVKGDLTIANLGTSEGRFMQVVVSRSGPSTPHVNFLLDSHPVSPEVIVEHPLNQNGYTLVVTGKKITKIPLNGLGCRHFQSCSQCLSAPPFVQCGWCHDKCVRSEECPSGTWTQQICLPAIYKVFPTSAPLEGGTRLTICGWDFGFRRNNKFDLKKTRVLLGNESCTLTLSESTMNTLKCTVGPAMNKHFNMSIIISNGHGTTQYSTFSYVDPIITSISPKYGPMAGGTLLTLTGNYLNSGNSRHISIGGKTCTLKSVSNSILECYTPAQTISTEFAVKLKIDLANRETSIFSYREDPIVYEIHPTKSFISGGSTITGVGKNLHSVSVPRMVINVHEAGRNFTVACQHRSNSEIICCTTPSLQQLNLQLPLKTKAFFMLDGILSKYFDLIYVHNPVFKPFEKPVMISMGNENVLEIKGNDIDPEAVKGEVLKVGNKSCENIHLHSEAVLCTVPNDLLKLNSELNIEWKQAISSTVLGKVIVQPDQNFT
Protocol: as §1

Human EGFR = Human EGFR (Homo sapiens, UniProt P00533); experiment: SPR (BIAcore T200) antibody capture kinetics; type: binding; conditions: for Koff / Kon: 25° C.; for Kon: 1:1 binding model
Protocol: as §1

Human cMET = Human cMET (Homo sapiens, UniProt P08581); experiment: SPR (BIAcore T200) antibody capture kinetics; type: binding; conditions: for Koff / Kon: 25° C.
Chain of Human cMET (P08581 25-932): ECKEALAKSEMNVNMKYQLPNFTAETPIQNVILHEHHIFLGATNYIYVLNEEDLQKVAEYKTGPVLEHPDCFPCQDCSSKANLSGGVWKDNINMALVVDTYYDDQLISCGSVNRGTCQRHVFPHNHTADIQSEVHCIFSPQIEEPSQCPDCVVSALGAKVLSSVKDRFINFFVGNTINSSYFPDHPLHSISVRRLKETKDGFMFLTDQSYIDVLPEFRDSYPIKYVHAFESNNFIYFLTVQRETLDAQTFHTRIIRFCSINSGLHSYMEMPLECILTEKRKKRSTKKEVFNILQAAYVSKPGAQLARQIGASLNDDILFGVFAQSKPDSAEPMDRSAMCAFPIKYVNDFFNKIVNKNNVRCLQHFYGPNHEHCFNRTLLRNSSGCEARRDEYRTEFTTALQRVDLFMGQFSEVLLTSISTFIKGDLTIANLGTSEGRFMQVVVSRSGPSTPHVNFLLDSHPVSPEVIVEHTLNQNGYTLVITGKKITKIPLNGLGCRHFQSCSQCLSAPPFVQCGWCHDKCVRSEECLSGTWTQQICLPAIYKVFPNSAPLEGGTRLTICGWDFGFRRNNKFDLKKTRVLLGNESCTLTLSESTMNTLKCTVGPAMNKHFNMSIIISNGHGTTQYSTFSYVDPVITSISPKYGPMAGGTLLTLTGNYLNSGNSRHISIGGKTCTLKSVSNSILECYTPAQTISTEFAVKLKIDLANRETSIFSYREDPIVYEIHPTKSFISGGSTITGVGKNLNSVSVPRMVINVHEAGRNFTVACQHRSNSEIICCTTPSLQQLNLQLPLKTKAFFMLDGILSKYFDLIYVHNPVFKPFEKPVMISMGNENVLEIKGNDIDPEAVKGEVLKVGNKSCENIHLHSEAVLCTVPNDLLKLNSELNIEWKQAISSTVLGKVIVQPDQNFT
Protocol: as §1

Mouse EGFR = target: T1, Mouse EGFR (Mus musculus, UniProt Q01279); experiment: SPR (BIAcore T200) antibody capture kinetics; type: binding; conditions: for Koff / Kon: 25° C.
T1 construct: purchased SinoBiological 51091-M08H
Protocol: as §1

[1] = target: T2, Cynomolgus monkey cMET (recombinant, soluble monomeric) (cynomolgus monkey, UniProt A0M8R7 25-932 (Papio anubis entry)); experiment: SPR, Biacore T200, antibody captured on anti-human IgG, soluble monomeric antigen as analyte, 25 C
T2 construct: also called cyno cMET
T2 sequence (A0M8R7 25-932 S170N/I621T): as the sequence (as listed by the source) above

[2] = target: T3, Human EGFR (recombinant, soluble monomeric) (human, UniProt P00533 25-645); experiment: as above
T3 construct: also called EGFR antigen

[3] = target: T4, Cynomolgus monkey EGFR (recombinant, soluble monomeric) (cynomolgus monkey, UniProt P55245 25-645 (rhesus entry)); experiment: as above
T4 construct: also called cyno EGFR

[4] = target: T5, Mouse EGFR (recombinant, soluble monomeric) (mouse, UniProt Q01279 25-647); experiment: as above
T5 construct: also called murine EGFR

[5] = target: T6, Human cMET (recombinant, soluble monomeric) (human, UniProt P08581 25-932); experiment: as above
T6 construct: in the HTRF assay it is called the human cMET receptor; also called His-tagged cMET antigen
T6 sequence (P08581 25-932): as the sequence (P08581 25-932) above

Mouse cMET (recombinant) = Mouse cMET (recombinant) (mouse, UniProt P16056 25-929, limits assumed); experiment: ELISA: antigen coated at 1 ug/mL, antibody dilution series, goat anti-human Fab-HRP, A450; panel Mouse cMET
Chain of Mouse cMET (recombinant) (P16056 25-929 limits assumed): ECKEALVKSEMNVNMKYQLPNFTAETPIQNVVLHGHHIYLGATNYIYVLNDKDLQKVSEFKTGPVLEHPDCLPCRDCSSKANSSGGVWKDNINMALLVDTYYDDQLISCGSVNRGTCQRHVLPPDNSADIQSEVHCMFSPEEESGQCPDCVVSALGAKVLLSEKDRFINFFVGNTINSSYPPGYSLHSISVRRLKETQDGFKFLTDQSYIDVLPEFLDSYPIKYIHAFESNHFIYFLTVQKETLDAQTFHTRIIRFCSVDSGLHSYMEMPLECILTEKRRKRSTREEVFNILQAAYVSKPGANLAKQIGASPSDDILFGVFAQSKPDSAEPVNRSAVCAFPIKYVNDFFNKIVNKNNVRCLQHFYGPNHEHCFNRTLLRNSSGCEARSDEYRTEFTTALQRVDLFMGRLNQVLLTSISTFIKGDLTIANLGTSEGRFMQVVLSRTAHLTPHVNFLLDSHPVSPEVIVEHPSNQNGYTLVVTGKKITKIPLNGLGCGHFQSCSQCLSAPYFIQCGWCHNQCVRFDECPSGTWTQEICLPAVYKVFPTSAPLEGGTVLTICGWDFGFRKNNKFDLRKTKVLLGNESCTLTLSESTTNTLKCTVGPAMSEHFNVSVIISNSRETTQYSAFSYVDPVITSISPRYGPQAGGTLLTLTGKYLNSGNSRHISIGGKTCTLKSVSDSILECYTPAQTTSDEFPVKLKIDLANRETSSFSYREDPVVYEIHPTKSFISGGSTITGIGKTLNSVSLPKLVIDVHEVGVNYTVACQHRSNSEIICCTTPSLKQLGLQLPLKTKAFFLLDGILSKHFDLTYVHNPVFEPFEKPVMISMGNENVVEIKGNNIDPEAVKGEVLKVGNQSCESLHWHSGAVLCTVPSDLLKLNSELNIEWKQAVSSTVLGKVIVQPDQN

HER2 = target: T7, HER2 (UniProt P04626 23-652, limits assumed); experiment: ELISA: antigen coated at 1 ug/mL, antibody dilution series, goat anti-human Fab-HRP, A450; panel Human HER2
T7 construct: also called EGFR HER family protein HER2

HER3 = target: T8, HER3 (UniProt P21860 20-643, limits assumed); experiment: ELISA: antigen coated at 1 ug/mL, antibody dilution series, goat anti-human Fab-HRP, A450; panel Human HER3
T8 construct: also called EGFR HER family protein HER3

HER4 = target: T9, HER4 (UniProt Q15303 26-649, limits assumed); experiment: ELISA: antigen coated at 1 ug/mL, antibody dilution series, goat anti-human Fab-HRP, A450; panel Human HER4
T9 construct: also called EGFR HER family protein HER4
T9 sequence (looked up): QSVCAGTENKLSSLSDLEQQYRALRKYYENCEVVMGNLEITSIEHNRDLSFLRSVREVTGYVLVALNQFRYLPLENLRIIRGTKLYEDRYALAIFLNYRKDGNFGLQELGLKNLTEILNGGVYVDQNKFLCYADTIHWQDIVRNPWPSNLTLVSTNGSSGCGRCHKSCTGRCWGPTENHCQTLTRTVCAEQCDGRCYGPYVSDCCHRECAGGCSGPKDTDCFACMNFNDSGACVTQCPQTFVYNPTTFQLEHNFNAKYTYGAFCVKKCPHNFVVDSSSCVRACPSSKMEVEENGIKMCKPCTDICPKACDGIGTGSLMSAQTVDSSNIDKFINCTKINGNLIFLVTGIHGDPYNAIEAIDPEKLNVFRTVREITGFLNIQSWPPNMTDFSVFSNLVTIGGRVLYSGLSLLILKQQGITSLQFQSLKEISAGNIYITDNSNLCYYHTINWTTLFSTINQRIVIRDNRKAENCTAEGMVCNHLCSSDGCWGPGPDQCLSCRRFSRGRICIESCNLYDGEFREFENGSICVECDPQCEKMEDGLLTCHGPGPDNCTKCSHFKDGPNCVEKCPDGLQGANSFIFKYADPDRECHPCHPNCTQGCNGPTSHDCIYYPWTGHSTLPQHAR

B1: RAA22/B09-57 DuetMab (bispecific antibody, human IgG1, kappa, lambda)
heavy 1: QVQLVQSGAEVKKPGSSVKVSCKASGGTFSDNDFSWVRQAPGQGLEWMGAIVAVFRTETYAQKFQDRVKITADISTRTTYMELSSLRSEDTAVYYCARRLMSAISGPGAPLLMWGQGTLVTVSSASTKGPSVFPLAPSSKSTSGGTAALGCLVKDYFPEPVTVSWNSGALTSGVHTFPAVLQSSGLYSLSSVVTVPSSSLGTQTYICNVNHKPSNTKVDKRVEPKSCDKTHTCPPCPAPELLGGPSCVFLFPPKPKDTLMISRTPEVTCVVVDVSHEDPEVKFNWYVDGVEVHNAKTKPREEQYNSTYRVVSVLTVLHQDWLNGKEYKCKVSNKALPAPIEKTISKAKGQPREPQVCTLPPSREEMTKNQVSLSCAVKGFYPSDIAVEWESNGQPENNYKTTPPVLDSDGSFFLVSKLTVDKSRWQQGNVFSCSVMHEALHNHYTQKSLSLSPGK
heavy 2: QVQLVQSGAEVKKPGASVKVSCKASGYTFTDYYIHWVRQATGQGLEWMGWMNPNSGNTGYAQKFQGRVTMTRDTSISTAYMELSSLRSEDTAVYYCARGQGYTHSWGQGTMVTVSSASTKGPSVCPLAPSSKSTSGGTAALGCLVKDYFPEPVTVSWNSGALTSGVHTFPAVLQSSGLYSLSSVVTVPSSSLGTQTYICNVNHKPSNTKVDKRVEPKSVDKTHTCPPCPAPELLGGPSCVFLFPPKPKDTLMISRTPEVTCVVVDVSHEDPEVKFNWYVDGVEVHNAKTKPREEQYNSTYRVVSVLTVLHQDWLNGKEYKCKVSNKALPAPIEKTISKAKGQPREPQVYTLPPCREEMTKNQVSLWCLVKGFYPSDIAVEWESNGQPENNYKTTPPVLDSDGSFFLYSKLTVDKSRWQQGNVFSCSVMHEALHNHYTQKSLSLSPG
light 1: QSALTQPRSVSGSPGQSVTISCTGTSSDVGGYNYVSWYQQHPGKAPKLMIYDVSKRPSGVPDRFSGSKSGNTASLTISGLQAEDEADYYCSSYTSSDTLEIFGGGTKLTVLGQPKAAPSVTLFPPSSEELQANKATLVCLISDFYPGAVTVAWKADSSPVKAGVETTTPSKQSNNKYAASSYLSLTPEQWKSHRSYSCQVTHEGSTVEKTVAPTECS
light 2: DIQMTQSPSTLSASVGDRVTITCRASEGIYHWLAWYQQKPGKAPKLLIYKASSLASGVPSRFSGSGSGTEFTLTISSLQPDDFATYYCQQYSNYPPTFGGGTKLEIKRTVAAPSVFIFPPCDEQLKSGTASVVCLLNNFYPREAKVQWKVDNALQSGNSQESVTEQDSKDSTYSLSSTLTLSKADYEKHKVYACEVTHQGLSSPVTKSFNRGEV
notes: also called monovalent bispecific EGFR/cMET DuetMAb RAA22/B09; RAA22/B09-Maia
Koff (Cynomolgus monkey EGFR): 0.00548 s⁻¹ | Kon (Cynomolgus monkey EGFR): 27800 M⁻¹ s⁻¹ | Koff (Cynomolgus monkey cMET): 0.00212 s⁻¹ | Kon (Cynomolgus monkey cMET): 974000 M⁻¹ s⁻¹ | Koff (Human EGFR): 0.00201 s⁻¹ | Kon (Human EGFR): 44700 M⁻¹ s⁻¹ | Koff (Human cMET): 0.000986 s⁻¹ | Kon (Human cMET): 443000 M⁻¹ s⁻¹ | Kd (Human cMET; koff/kon): ~2 nM | Koff (Mouse EGFR): 0.0206 s⁻¹ | Kon (Mouse EGFR): 35400 M⁻¹ s⁻¹ | Kd [1]: 2.2 nM | koff [1]: 0.00212 s⁻¹ | kon [1]: 974000 M⁻¹ s⁻¹ | Kd [2]: 45 nM | koff [2]: 0.00201 s⁻¹ | kon [2]: 44700 M⁻¹ s⁻¹ | Kd [3]: 197 nM | koff [3]: 0.00548 s⁻¹ | kon [3]: 27800 M⁻¹ s⁻¹ | Kd [4]: 575 nM | koff [4]: 0.0206 s⁻¹ | kon [4]: 35400 M⁻¹ s⁻¹ | Kd [5]: 2.2 nM | koff [5]: 0.000986 s⁻¹ | kon [5]: 443000 M⁻¹ s⁻¹ | binding result (Mouse cMET (recombinant)): no binding (tested: 10 ug/ml) | binding result (HER2): no binding (tested: 10 ug/ml) | binding result (HER3): no binding (tested: 10 ug/ml) | binding result (HER4): no binding (tested: 10 ug/ml)

B2: QD6/B09-57 DuetMab (bispecific antibody, human IgG1, kappa, lambda)
heavy 1: B1 heavy 1 with F55V
heavy 2: B1 heavy 2
light 1: B1 light 1 with K55E, S91F
light 2: B1 light 2
notes: also called monovalent bispecific EGFR/cMET DuetMAb QD6/B09
Koff (Cynomolgus monkey EGFR): 0.000585 s⁻¹ | Kon (Cynomolgus monkey EGFR): 210000 M⁻¹ s⁻¹ | Koff (Cynomolgus monkey cMET): 0.00206 s⁻¹ | Kon (Cynomolgus monkey cMET): 958000 M⁻¹ s⁻¹ | Koff (Human EGFR): 0.000374 s⁻¹ | Kon (Human EGFR): 63500 M⁻¹ s⁻¹ | Kd (Human EGFR; KD calculated as koff/kon): ~6 nM | Koff (Human cMET): 0.000696 s⁻¹ | Kon (Human cMET): 425000 M⁻¹ s⁻¹ | Koff (Mouse EGFR): 0.00078 s⁻¹ | Kon (Mouse EGFR): 126000 M⁻¹ s⁻¹ | Kd (Mouse EGFR; koff/kon): ~6 nM | Kd [1]: 2.2 nM | koff [1]: 0.00206 s⁻¹ | kon [1]: 958000 M⁻¹ s⁻¹ | Kd [2]: 5.9 nM | koff [2]: 0.000374 s⁻¹ | kon [2]: 63500 M⁻¹ s⁻¹ | Kd [3]: 2.8 nM | koff [3]: 0.000585 s⁻¹ | kon [3]: 210000 M⁻¹ s⁻¹ | Kd [4]: 6.2 nM | koff [4]: 0.00078 s⁻¹ | kon [4]: 126000 M⁻¹ s⁻¹ | Kd [5]: 1.6 nM | koff [5]: 0.000696 s⁻¹ | kon [5]: 425000 M⁻¹ s⁻¹ | binding result (Mouse cMET (recombinant)): no binding (tested: 10 ug/ml) | binding result (HER2): no binding (tested: 10 ug/ml) | binding result (HER3): no binding (tested: 10 ug/ml) | binding result (HER4): no binding (tested: 10 ug/ml)
